EC50 data for 1 molecule are collected here from US20210246218A1 (LYVGEN BIOPHARMA SUZHOU, published 2021).

Assay [1] deals with T1, recombinant human CD137 receptor protein (human, UniProt Q07011 24-186).
T1 construct: Coated on ELISA plates; also called recombinant human CD137 protein
The assay can be described thus: ELISA, human CD137 protein coated; average, n=6. The procedure: (§1) The human or cynomolgus monkey CD137 receptor protein was diluted in DPBS to 1 μg/mL, and then coated onto an ELISA plate (Corning, Catalog number: 9018, high binding) with a volume of 100 μL (0.1 μg) or 50 μL (0.05 μg) per well, and incubated at 4° C. overnight. The plate was decanted and washed once; assay diluent was added 200 μL/well. After a one-hour incubation at room temperature, the plate was washed with PBST one time. […] The plate was incubated one hour at room temperature and then washed three times with PBST. Goat anti-human IgG-H+L HRP conjugated at 1:100,000 dilution was added to the plate at 100 μL/well. The plate was then incubated one hour at room temperature followed by washing with PBST four times. The TMB substrate solution was added at 100 μL/well. The color was allowed to develop for 15 minutes, and was stopped with 100 μL/well 2N H₂SO₄. Absorbance at 450 nm and 620 nm was determined by a Tecan F200 Pro reader.
(§2) Graphpad 7.0, “[Agonist] vs. response—Variable slope (four parameters)” was used to plot the binding data and calculate binding EC₅₀ values.

In assay [2] the target is T2, recombinant cynomolgus monkey CD137 receptor protein (cynomolgus monkey, UniProt A9YYE7 24-186).
T2 construct: Coated on ELISA plates; also called Cyno CD137
T2 sequence (A9YYE7 entry or part of it): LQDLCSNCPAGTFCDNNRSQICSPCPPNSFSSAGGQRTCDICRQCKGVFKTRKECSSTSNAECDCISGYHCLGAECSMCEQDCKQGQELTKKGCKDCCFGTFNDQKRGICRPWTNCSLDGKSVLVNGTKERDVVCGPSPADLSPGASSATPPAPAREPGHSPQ
The assay can be described thus: ELISA, cynomolgus CD137 protein coated; average, n=6. The procedure:
as §1, §2

In assay [3] the target is T3, cynomolgus monkey CD137 on cells (cynomolgus monkey, UniProt A9YYE7 24-254).
T3 construct: whole, on cells; also called CHO-cynomolgus monkey CD137
T3 sequence (A9YYE7 entry or part of it): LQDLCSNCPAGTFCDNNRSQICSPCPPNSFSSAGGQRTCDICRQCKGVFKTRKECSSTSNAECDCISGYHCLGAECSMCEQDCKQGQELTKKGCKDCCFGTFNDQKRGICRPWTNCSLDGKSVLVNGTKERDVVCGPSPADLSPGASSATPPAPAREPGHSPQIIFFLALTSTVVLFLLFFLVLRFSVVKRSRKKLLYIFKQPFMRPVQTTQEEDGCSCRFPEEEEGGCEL
The assay can be described thus: flow cytometry on CHO cells over-expressing cynomolgus CD137; average, n=6. The procedure:
CHO cells over-expressing human or cynomolgus monkey CD137 and CHO parental cells were harvested by centrifugation at 1000 g for 3 minutes. The cells were resuspended in ice cold assay buffer at 2*10\hat{ }6/mL and transferred to 96-well V-bottom plate with 100 μL/well. […] The plate was mixed and incubated in the dark for 2 hours at 4° C. The cells were washed 3 times by centrifugation at 1000 g for 3 min and resuspended in ice cold assay buffer containing goat F(ab′)₂ anti-human IgG-Fc (PE), 100 μL/well. The plate was incubated in the dark for another 1 hour at 4° C. The cells were washed 2 times by centrifugation at 1000 g for 3 min and resuspended in ice cold assay buffer containing 2% PFA. The cells were then subjected to the flow cytometer immediately.
Mean fluorescence intensity (MFI) was calculated from the total cell population in the FCM experiments. Graphpad 7.0, “[Agonist] vs. response—Variable slope (four parameters)” was used to plot the binding MFI in dose response and to calculate FCM binding EC₅₀ values.
Background: In flow cytometry, cells or beads pass a laser one at a time.

Several values for one entry are separate records, joined by “and”; a condition that tells them apart may be missing. Identical values can stand only once.

What is called EC50 is the concentration at which the effect is half-maximal.

B1: Clone 3712-IgG1v (IgG1v/kappa) (antibody)
heavy: QVQLVQSGAEVKKPGASVKVSCKASGYTFAGFEMHWVRQAPGQGLEWMGAIDPKTGGTDYNQKFKDRVTMTRDTSISTAYMELSRLRSDDTAVYYCARDLGYFDVWGQGTLVTVSSASTKGPSVFPLAPSSKSTSGGTAALGCLVKDYFPEPVTVSWNSGALTSGVHTFPAVLQSSGLYSLSSVVTVPSSSLGTQTYICNVNHKPSNTKVDKKVEPKSCDKTHTCPPCPAPELLGPSVFLFPPKPKDTLMISRTPEVTCVVVDVEHEDPEVKFNWYVDGVEVHNAKTKPREEQYNSTYRVVSVLTVLHQDWLNGKEYKCKVSNKALPAPIEKTISKAKGQPREPQVYTLPPSREEMTKNQVSLTCLVKGFYPSDIAVEWESNGQPENNYKTTPPVLDSDGSFFLYSKLTVDKSRWQQGNVFSCSVMHEALHNHYTQKSLSLSPGK
light: DIQMTQSPSSLSASVGDRVTITCRASQDIRSNLNWYQQKPGGAVKLLIYYTSRLHSGVPSRFSGSGSGTDYTLTISSLQPEDFATYFCQQSEKLPRTFGGGTKVEIRRTVAAPSVFIFPPSDEQLKSGTASVVCLLNNFYPREAKVQWKVDNALQSGNSQESVTEQDSKDSTYSLSSTLTLSKADYEKHKVYACEVTHQGLSSPVTKSFNRGEC
notes: copies: 2 + 2
As for B1, the half-maximal effective concentration (EC50) was 0.37 nM and 0.0529 µg/mL in assay [1]; 0.33 nM and 0.0474 µg/mL in assay [2]; 0.26 nM and 0.0369 µg/mL in assay [3].
